From patent publication US20200317768A1 (published 2020)

Key:
[1] = molecular target: T1, cynomolgus monkey FcγRIIb extracellular domain, C-terminal His-tag (cynomolgus monkey); experiment: SPR (BIACORE), antibody captured, FcγR analyte
T1 construct: also called cyno FcγRIIb; cynoFcγRIIb; not shown: His-tag added to C-terminus
T1 chain: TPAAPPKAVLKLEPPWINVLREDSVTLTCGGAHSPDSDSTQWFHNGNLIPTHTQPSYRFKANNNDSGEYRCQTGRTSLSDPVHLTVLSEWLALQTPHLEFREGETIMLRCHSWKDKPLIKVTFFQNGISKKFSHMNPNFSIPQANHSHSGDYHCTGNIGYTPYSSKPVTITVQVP

[2] = molecular target: T2, cynomolgus monkey FcγRIIIaS extracellular domain, C-terminal His-tag (cynomolgus monkey, UniProt A3RFZ7 21-206 (rhesus entry)); experiment: SPR (BIACORE), antibody captured, FcγR analyte
T2 construct: also called cyno FcγRIIIaS; cynoFcγRIIIaS; not shown: His-tag added to C-terminus
T2 sequence (A3RFZ7 21-206): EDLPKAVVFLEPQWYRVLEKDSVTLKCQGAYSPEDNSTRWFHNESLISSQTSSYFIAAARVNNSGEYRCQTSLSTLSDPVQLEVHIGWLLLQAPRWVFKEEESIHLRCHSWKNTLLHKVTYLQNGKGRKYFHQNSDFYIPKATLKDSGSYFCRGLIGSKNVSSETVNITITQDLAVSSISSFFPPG

[3] = molecular target: T3, human FcγRIIaR extracellular domain, C-terminal His-tag (human, UniProt P12318 34-217); experiment: SPR (BIACORE), antibody captured, FcγR analyte
T3 construct: also called human FcγRIIa (type R); FcgRIIaR; not shown: His-tag added to C-terminus
T3 chain: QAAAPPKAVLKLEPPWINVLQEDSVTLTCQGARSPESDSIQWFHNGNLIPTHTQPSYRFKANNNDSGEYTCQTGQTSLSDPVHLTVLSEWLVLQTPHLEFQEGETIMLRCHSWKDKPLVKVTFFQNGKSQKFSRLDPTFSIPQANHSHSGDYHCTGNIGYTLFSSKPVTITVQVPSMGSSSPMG

[4] = molecular target: T4, human FcγRIIb extracellular domain, C-terminal His-tag (human, UniProt P31994 43-217); experiment: SPR (BIACORE), antibody captured, FcγR analyte
T4 construct: also called humanFcgRIIb; not shown: His-tag added to C-terminus
T4 sequence: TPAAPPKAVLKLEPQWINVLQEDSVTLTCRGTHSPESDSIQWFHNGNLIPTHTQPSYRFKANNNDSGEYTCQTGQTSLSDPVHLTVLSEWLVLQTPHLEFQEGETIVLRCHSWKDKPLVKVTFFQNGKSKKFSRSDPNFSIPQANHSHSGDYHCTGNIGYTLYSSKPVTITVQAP

[5] = molecular target: T5, cynomolgus monkey FcγRIIa1 extracellular domain, C-terminal His-tag (cynomolgus monkey); experiment: SPR (BIACORE); KD of parent SG1 / KD of variant;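 also: relative to parent M103205H795-SG1 carrying the SG1 human heavy chain constant region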
T5 construct: also called cyno FcγRIIa1; cynoFcgRIIa1; not shown: His-tag added to C-terminus
T5 chain: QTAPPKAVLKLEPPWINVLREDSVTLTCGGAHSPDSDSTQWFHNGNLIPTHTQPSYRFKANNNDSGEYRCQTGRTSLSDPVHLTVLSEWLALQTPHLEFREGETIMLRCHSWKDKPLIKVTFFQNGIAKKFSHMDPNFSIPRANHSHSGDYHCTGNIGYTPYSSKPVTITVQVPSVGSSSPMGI

[6] = molecular target: T6, cynomolgus monkey FcγRIIa3 extracellular domain, C-terminal His-tag (cynomolgus monkey); experiment: SPR (BIACORE); KD of parent SG1 / KD of variant;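 also: relative to parent M103205H795-SG1 carrying the SG1 human heavy chain constant region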
T6 construct: also called cyno FcγRIIa3; cynoFcgRIIa3; not shown: His-tag added to C-terminus
T6 chain: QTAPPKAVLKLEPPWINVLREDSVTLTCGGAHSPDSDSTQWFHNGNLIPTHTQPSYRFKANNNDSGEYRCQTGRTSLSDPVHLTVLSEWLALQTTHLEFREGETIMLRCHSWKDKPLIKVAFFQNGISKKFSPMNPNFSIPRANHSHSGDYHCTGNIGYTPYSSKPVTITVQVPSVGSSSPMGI

[7] = molecular target: T1, cynomolgus monkey FcγRIIb extracellular …; experiment: SPR (BIACORE); KD of parent SG1 / KD of variant;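 also: relative to parent M103205H795-SG1 carrying the SG1 human heavy chain constant region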
[8] = molecular target: T2, cynomolgus monkey FcγRIIIaS …; experiment: SPR (BIACORE); KD of parent SG1 / KD of variant;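 also: relative to parent M103205H795-SG1 carrying the SG1 human heavy chain constant region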
[9] = molecular target: T7, human FcγRIIaH extracellular domain, C-terminal His-tag (human, UniProt P12318 34-217); experiment: SPR (BIACORE); KD of parent SG1 / KD of variant
T7 construct: also called human FcγRIIa (type H); FcgRIIaH; not shown: His-tag added to C-terminus
T7 sequence: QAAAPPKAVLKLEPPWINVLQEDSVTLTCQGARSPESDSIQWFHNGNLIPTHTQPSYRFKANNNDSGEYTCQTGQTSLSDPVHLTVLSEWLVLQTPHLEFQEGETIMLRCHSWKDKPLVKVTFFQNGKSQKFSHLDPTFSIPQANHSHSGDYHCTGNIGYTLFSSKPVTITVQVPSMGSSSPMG

[10] = molecular target: T3, human FcγRIIaR extracellular domain, …; experiment: SPR (BIACORE); KD of parent SG1 / KD of variant
[11] = molecular target: T4, human FcγRIIb extracellular domain, …; experiment: SPR (BIACORE); KD of parent SG1 / KD of variant
[12] = molecular target: T8, human FcγRIIIaV extracellular domain, C-terminal His-tag (human, UniProt P08637 17-208); experiment: SPR (BIACORE); KD of parent SG1 / KD of variant
T8 construct: also called FcgRIIIaV; not shown: His-tag added to C-terminus
T8 sequence (P08637 17-208 F176V): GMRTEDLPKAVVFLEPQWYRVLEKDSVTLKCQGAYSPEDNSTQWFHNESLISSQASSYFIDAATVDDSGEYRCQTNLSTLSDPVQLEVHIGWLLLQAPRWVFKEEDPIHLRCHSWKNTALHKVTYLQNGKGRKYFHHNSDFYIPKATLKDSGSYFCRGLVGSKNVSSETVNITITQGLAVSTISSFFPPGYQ

Kd [1]: 1900 nM
Kd [2]: 280 nM
Kd [3]: 1000 nM
Kd [4]: 4.7 µM
KD fold (SG1 = 1) [5]: 1 fold
KD fold (SG1 = 1) [6]: 1 fold
KD fold (SG1 = 1) [7]: 1 fold
KD fold (SG1 = 1) [8]: 1 fold
KD fold (SG1 = 1) [9]: 1 fold
KD fold (SG1 = 1) [10]: 1 fold
KD fold (SG1 = 1) [11]: 1 fold
KD fold (SG1 = 1) [12]: 1 fold
B1: MS_M103205H795-SG1/M103202L889-SK1 (antibody, human IgG1, kappa)
heavy: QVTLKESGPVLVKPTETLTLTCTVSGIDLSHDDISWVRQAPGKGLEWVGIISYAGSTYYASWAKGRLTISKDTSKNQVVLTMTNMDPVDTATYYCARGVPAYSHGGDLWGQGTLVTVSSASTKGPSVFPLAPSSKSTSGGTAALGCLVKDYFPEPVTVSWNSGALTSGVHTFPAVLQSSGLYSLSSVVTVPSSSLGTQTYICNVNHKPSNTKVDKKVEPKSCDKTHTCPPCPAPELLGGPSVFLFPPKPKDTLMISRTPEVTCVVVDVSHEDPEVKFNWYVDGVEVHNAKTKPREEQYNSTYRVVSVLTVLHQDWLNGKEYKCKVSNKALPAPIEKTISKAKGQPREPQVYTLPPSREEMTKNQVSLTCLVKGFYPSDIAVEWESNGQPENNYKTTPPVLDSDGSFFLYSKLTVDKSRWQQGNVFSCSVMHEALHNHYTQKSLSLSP
light: DIVMTQSPATLSLSPGERATLSCTSSQSVYHANWLSWFQQKPGQPPKLLIYWASTLAYGVPSRFSGSGSGTDFTLTISSLQPEDAATYYCAGGYGGGRYAFGQGTKVEIKRTVAAPSVFIFPPSDEQLKSGTASVVCLLNNFYPREAKVQWKVDNALQSGNSQESVTEQDSKDSTYSLSSTLTLSKADYEKHKVYACEVTHQGLSSPVTKSFNRGEC
notes: Parent antibody with SG1 human heavy chain constant region; also called MS1032LO06-SG1
